# Biological target: T1, RB-C fusion protein (residues 701-928) (UniProt P06400)
# T1 sequence: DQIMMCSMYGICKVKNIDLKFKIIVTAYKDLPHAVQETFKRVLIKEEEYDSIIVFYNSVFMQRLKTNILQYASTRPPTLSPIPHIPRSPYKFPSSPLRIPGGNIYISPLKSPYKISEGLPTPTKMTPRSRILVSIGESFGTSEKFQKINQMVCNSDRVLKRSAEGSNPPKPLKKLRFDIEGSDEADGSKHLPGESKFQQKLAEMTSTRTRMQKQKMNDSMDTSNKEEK
substance,measurement,value
AMPK holoenzyme (α/β/γ heterotrimers),nonradioactive in vitro kinase assay; phosphorylation monitored by immunoblot using phospho-Rb800/804 antibody,"AMPK directly phosphorylated Rb at Ser804 and that this modification could be inhibited by the AMPK inhibitor, compound C"

# From patent US20100221748A1
